Laboratory results: patent CN101228187A

Experiments:
[1] = biological target: T1, FRHSVV peptide, common epitope of mutant p53 (biotinylated) (human); experiment: BIAcore (SPR), data not shown
[2] = biological target: T1, FRHSVV peptide, common epitope of …; experiment: BIAcore (SPR), biotinylated peptide on streptavidin SA chip, scFv injected, 1:1 Langmuir model

Row | Binder | Kd [1] [nM] | Kd [2] [nM]
1 | A6 scFv (scFv) scFv: VQLLESGGGLVQPGGSPRLSCAASGFTFSGYWMHWVRQAPGKGLEWVSEISGSGDSTHYGDSVKGRFTISRDNSKNTLYLQMNSLRAEDTAVYYCARGRNGSLDYWGQGTLVTVSSGSAGGGGSGGGGSGGGGSDIVLTQPPSASGTPGQRVTISCTGGRFNIGDYAVNWYQQLPGKAPKLLIYDNDRRPSGVSDRFSGSKSGTSASLAISGLRSEDEADYYCAAWDDSLDGLVFGGGTQLTV | 23 | –
2 | F2 scFv (scFv) scFv: VQLLESGGGLVQPGGSLRLSCAASGFTFSGYWMHWVRQAPGKGLEWVSEISGSGDSTHYGDSVKGRFTISRDNSKNTLYLQMNSLRAEDTAVYYCARGRNGSLDYWGQGTLVTVSSGSAGGGGSGGGGSGGGGSDIVLTQPPSASGTPGQRVTISCSGTSSNIGADYDVHWYQQLPGKAPKLLIYDNNKRPSGVSDRFSGSKSGTSASLAISGLRSEDEADYYCAAWDSSLSSVVFGGGTQLTV | – | 11
